# Test results as given in patent US20190241671A1 (Merck KGaA, published 2019).
# T1: CD19 antigen on Daudi lymphoma cells (human, UniProt P15391 20-556)
# T1 construct: whole, on cells; also called Daudi cells
# T1 sequence (looked up): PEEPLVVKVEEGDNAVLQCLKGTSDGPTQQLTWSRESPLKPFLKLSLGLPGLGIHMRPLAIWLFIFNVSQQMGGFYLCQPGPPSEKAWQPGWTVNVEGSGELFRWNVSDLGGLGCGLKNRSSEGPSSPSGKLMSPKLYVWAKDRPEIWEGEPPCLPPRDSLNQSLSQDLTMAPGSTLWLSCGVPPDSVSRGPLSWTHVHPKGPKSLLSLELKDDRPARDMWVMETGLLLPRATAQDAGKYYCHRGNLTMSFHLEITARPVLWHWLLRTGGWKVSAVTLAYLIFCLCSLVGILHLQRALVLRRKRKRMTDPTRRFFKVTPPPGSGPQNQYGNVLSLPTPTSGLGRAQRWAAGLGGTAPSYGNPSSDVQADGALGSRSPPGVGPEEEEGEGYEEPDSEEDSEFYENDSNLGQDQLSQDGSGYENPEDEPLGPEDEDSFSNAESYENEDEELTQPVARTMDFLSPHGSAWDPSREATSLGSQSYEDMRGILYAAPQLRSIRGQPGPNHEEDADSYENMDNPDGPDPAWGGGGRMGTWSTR
# B1: B4 VH0/VK0 antibody (antibody, V domains shown)
# VH: QVQLQQPGAEVVKPGASVRLSCKTSGYTFTSNWMHWVKQRPGQGLEWIGEIDPSDSYTNYNQKFKGKAKLTVDKSSSTAYMEVSSLTSEDSAVYYCARGSNPYYYAMDYWGQGTSVTVSS
# VL: QIVLTQSPAIMSASPGEKVTMTCSASSGVNYMHWYQQKPGTSPKRWIYDTSKLASGVPARFSGSGSGTSYSLTISSMEAEDAATYYCHQRGSYTFGGGTKLEIK
# notes: Expressed from pdHL12 as intact heavy and light chains; also called parental B4 antibody
# Legend:
# [1] = molecular target: T1, CD19 antigen on Daudi lymphoma cells; assay: FACS competition on Daudi cells; unlabeled antibody 200 ng/ml (2x) vs competitor biotin-B4 VH0/VK0 100 ng/ml
# Method: (§1) Briefly, a titration series was prepared of biotin-labeled B4 VH0/VK0 antibody pre-mixed at a final concentration of 100 ng/ml with one of the unlabeled, experimental B4 VHvx/VKvy antibodies at 800 ng/ml, 400 ng/ml, 200 ng/ml, 100 ng/ml, and 50 ng/ml in a PBS/2% serum buffer. As a control, the biotin-labeled antibody was pre-mixed with unlabeled B4 VH0/VK0 antibody at the same concentrations as above (inhibition control) or with buffer only (positive binding control). The combined antibodies were added to Daudi cells for 30 minutes at 4° C. A 1:200 dilution of FITC-labeled streptavidin was added to the cells and the samples were incubated for a further 30 minutes at 4° C. Bound amount of labeled B4 VH0/VK0 antibody was quantitated by FACS analysis, and the results were expressed as “percent inhibition,” relative to the positive binding control. The tested antibodies were B4 VH0/VK0 (C), B4 VHv1/VKv1 (1), B4 VHv2/VKv1 (2), B4 VHv1/VKv2 (3), B4 VHv2/VKv2 (4), B4 VHv3/VKv3 (5), B4 VHv4/VKv3 (6), B4 VHv3/VKv4 (7), B4 VHv4/VKv4 (8), B4 VHv5/VKv4 (9), and B4 VHv6/VKv4 (10).
# [2] = molecular target: T1, CD19 antigen on Daudi lymphoma cells; assay: FACS competition on Daudi cells; unlabeled antibody 100 ng/ml (1x) vs competitor biotin-B4 VH0/VK0 100 ng/ml
# Method: as §1
# [3] = molecular target: T1, CD19 antigen on Daudi lymphoma cells; assay: FACS competition on Daudi cells; unlabeled antibody 200 ng/ml (2x) vs competitor biotin-B4 VH0/VK0 100 ng/ml; remark: listed apart in the source
# Method: as §1
# [4] = molecular target: T1, CD19 antigen on Daudi lymphoma cells; assay: FACS competition on Daudi cells; unlabeled antibody 400 ng/ml (4x) vs competitor biotin-B4 VH0/VK0 100 ng/ml
# Method: as §1
# [5] = molecular target: T1, CD19 antigen on Daudi lymphoma cells; assay: FACS competition on Daudi cells; unlabeled antibody 800 ng/ml (8x) vs competitor biotin-B4 VH0/VK0 100 ng/ml
# Method: as §1
# [6] = molecular target: T1, CD19 antigen on Daudi lymphoma cells; assay: FACS competition on Daudi cells; unlabeled antibody 50 ng/ml (0.5x) vs competitor biotin-B4 VH0/VK0 100 ng/ml
# Method: as §1
# [7] = molecular target: T1, CD19 antigen on Daudi lymphoma cells; assay: FACS competition on Daudi cells; unlabeled antibody 400 ng/ml (4x) vs competitor biotin-B4 VH0/VK0 100 ng/ml; remark: listed apart in the source
# Method: as §1
# [8] = molecular target: T1, CD19 antigen on Daudi lymphoma cells; assay: FACS competition on Daudi cells; unlabeled antibody 100 ng/ml (1x) vs competitor biotin-B4 VH0/VK0 100 ng/ml; remark: listed apart in the source
# Method: as §1
# [9] = molecular target: T1, CD19 antigen on Daudi lymphoma cells; assay: FACS competition on Daudi cells; unlabeled antibody 800 ng/ml (8x) vs competitor biotin-B4 VH0/VK0 100 ng/ml; remark: listed apart in the source
# Method: as §1
# [10] = molecular target: T1, CD19 antigen on Daudi lymphoma cells; assay: FACS competition on Daudi cells; unlabeled antibody 50 ng/ml (0.5x) vs competitor biotin-B4 VH0/VK0 100 ng/ml; remark: listed apart in the source
# Method: as §1
binder,measurement,setting,value
B1,% inhibition of labeled B4 binding,[1],44%
same,% inhibition of labeled B4 binding,[2],28%
same,% inhibition of labeled B4 binding,[3],83%
same,% inhibition of labeled B4 binding,[4],90%
same,% inhibition of labeled B4 binding,[5],93%
same,% inhibition of labeled B4 binding,[6],16%
same,% inhibition of labeled B4 binding,[7],56%
same,% inhibition of labeled B4 binding,[8],67%
same,% inhibition of labeled B4 binding,[9],68%
same,% inhibition of labeled B4 binding,[10],50%
